± gives the uncertainty stated by the source.

This data set can be described thus: self-splicing fitness, log relative to wild type (ln ratio); higher = more splicing; Tetrahymena group I intron in knt gene, E. coli kanamycin selection, DiMSum; sequences stand for … in CUCUCU…GGAGGGAAAAGUUAUCAGGCAUGCACCUGGUAGCUAGUCUUUAAACCAAUAGAUUGCAUCGGUUUAAAAGGCAAGACCGUCAAAUUGCGGGAAAGGGGUCAACAGCCGUUCAGUACCAAGUCUCAGGGGAAACUUUGAGAUGGCCUUGCAAAGGGUAUGGUAAUAAGCUGACGGACAUGGUCCUAACCACGCAGCCAAGUCCUAAGUCAACAGAUCUUCUGUUGAUAUGGAUGCAGUUCACAGACUAAAUGUCGGUCGGGGAAGAUGUAUUCUUCUCAUAAGAUAUAGUCGGACCUCUCCUUAAUGGGAGCUAGCGGAUGAAGUGAUGCAACACUGGAGCCGCUGGGAACUAAUUUGUAUGCGAAAGUAUAUUGAUUAGUUUUGGAGUACUCGUGGUCG
The method, boiled down:
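A randomised library covering all eight P1ex-region intron nucleotides was built with the intron in the knt kanamycin-resistance gene on pET-22b(+) and held in E. coli BL21(DE3). Cells were grown overnight at 37°C or 30°C on LB agar, with or without 25 μg/mL kanamycin, plus 100 μg/mL carbenicillin, 50 μM IPTG and 0.2% rhamnose, and pooled colonies were amplicon-sequenced on an Illumina HiSeq 2500. DiMSum fitness is the error-weighted combination of wild-type-normalised replicate fold changes, kanamycin versus none.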

With AAGAAGCAAUAUUACGAACC, the “self-splicing fitness (ln)” value is -0.581 ± 0.14 (30 °C) and -0.25 ± 0.17 (37 °C).

With GACGAGCAAUAUUACGAUGU, the “self-splicing fitness (ln)” value is -3.94 ± 0.26 (30 °C) and -1.38 ± 0.14 (37 °C).

As for CCCCAGCAAUAUUACGUCCG, the “self-splicing fitness (ln)” value (37 °C) is -2.09 ± 0.28.

Consider AAGAAGCAAUAUUACGAGGA, for which the “self-splicing fitness (ln)” value is -3.43 ± 0.28 (30 °C) and -2.98 ± 0.3 (37 °C).

In the case of UCGCAGCAAUAUUACGAGGC, the “self-splicing fitness (ln)” value (30 °C) was -3.12 ± 0.24 and the “self-splicing fitness (ln)” value (37 °C) is -3.16 ± 0.26.

As for AGUGAGCAAUAUUACGAAUU, the “self-splicing fitness (ln)” value reads like this: (30 °C) -3.18 ± 0.37; (37 °C) -2.56 ± 0.33.

As for AAACAGCAAUAUUACGAUCA, the “self-splicing fitness (ln)” value is -0.774 ± 0.07 (30 °C) and -0.178 ± 0.065 (37 °C).

As for UCACAGCAAUAUUACGGUGG, the “self-splicing fitness (ln)” value is -3.45 ± 0.14 (30 °C) and -2.71 ± 0.18 (37 °C).

As to GUCGAGCAAUAUUACGAGGC, the “self-splicing fitness (ln)” value (30 °C) was -3.01 ± 0.21 and the “self-splicing fitness (ln)” value (37 °C) is -3.06 ± 0.31.

Turning to CGCUAGCAAUAUUACGCCGG, the “self-splicing fitness (ln)” value by setting is: (30 °C) -3.06 ± 0.29; (37 °C) -2.24 ± 0.45.

Regarding GUGCAGCAAUAUUACGCUGC, the “self-splicing fitness (ln)” value is -2.77 ± 0.18 (30 °C) and -2.14 ± 0.35 (37 °C).

With GUCCAGCAAUAUUACGGAGC, the “self-splicing fitness (ln)” value runs as follows: (30 °C) -2.17 ± 0.087; (37 °C) -2.68 ± 0.088.

AUAAAGCAAUAUUACGUCCG: the “self-splicing fitness (ln)” value (30 °C) is -0.335 ± 0.11 and the “self-splicing fitness (ln)” value (37 °C) was found to be 0.106 ± 0.13.

In the case of ACCAAGCAAUAUUACGAACA, the “self-splicing fitness (ln)” value is, setting by setting: (30 °C) -2.91 ± 0.16; (37 °C) -0.543 ± 0.089.

Regarding UACGAGCAAUAUUACGACUC, the “self-splicing fitness (ln)” value by setting is: (30 °C) -2.51 ± 0.21; (37 °C) -2.31 ± 0.36.

As to UACAAGCAAUAUUACGAGCC, the “self-splicing fitness (ln)” value (30 °C) is -2.24 ± 0.48.

Turning to UAAAAGCAAUAUUACGACAC, the “self-splicing fitness (ln)” value is, setting by setting: (30 °C) -1.88 ± 0.15; (37 °C) -0.594 ± 0.17.

Take CGCAAGCAAUAUUACGUCAU: the “self-splicing fitness (ln)” value runs as follows: (30 °C) -4.26 ± 0.24; (37 °C) -2.4 ± 0.17.

In the case of CGCUAGCAAUAUUACGGCUC, the “self-splicing fitness (ln)” value reads like this: (30 °C) -1.15 ± 0.16; (37 °C) -0.2 ± 0.19.

For the sequence CAGCAGCAAUAUUACGACGA, the “self-splicing fitness (ln)” value reads like this: (30 °C) -1.68 ± 0.13; (37 °C) -0.501 ± 0.096.

With AACCAGCAAUAUUACGGAAA, the “self-splicing fitness (ln)” value runs as follows: (30 °C) -1.73 ± 0.097; (37 °C) -0.275 ± 0.088.

Consider GGCGAGCAAUAUUACGUGAC, for which the “self-splicing fitness (ln)” value is -1.24 ± 0.18 (30 °C) and -1.65 ± 0.29 (37 °C).

As to AUUAAGCAAUAUUACGUACC, the “self-splicing fitness (ln)” value is, setting by setting: (30 °C) -2.05 ± 0.23; (37 °C) 0.0479 ± 0.26.

For the sequence ACGGAGCAAUAUUACGUCGU, the “self-splicing fitness (ln)” value runs as follows: (30 °C) -2.98 ± 0.26; (37 °C) -2.48 ± 0.19.

Turning to AAUGAGCAAUAUUACGAUUU, the “self-splicing fitness (ln)” value was -1.24 ± 0.095 (30 °C) and -0.73 ± 0.1 (37 °C).

For the sequence UGUCAGCAAUAUUACGGCGU, the “self-splicing fitness (ln)” value was -1.95 ± 0.15 (30 °C) and -0.728 ± 0.13 (37 °C).

Regarding CUCGAGCAAUAUUACGUUAG, the “self-splicing fitness (ln)” value runs as follows: (30 °C) -3.81 ± 0.21; (37 °C) -1.37 ± 0.14.

Regarding CCAUAGCAAUAUUACGCCAU, the “self-splicing fitness (ln)” value reads like this: (30 °C) -4.18 ± 0.31; (37 °C) -2.41 ± 0.25.

For ACAAAGCAAUAUUACGGGAA, the “self-splicing fitness (ln)” value reads like this: (30 °C) -2.44 ± 0.18; (37 °C) -2.48 ± 0.17.

Take GGUAAGCAAUAUUACGGAUU: the “self-splicing fitness (ln)” value is -0.823 ± 0.094 (30 °C) and -0.646 ± 0.11 (37 °C).

For CCAUAGCAAUAUUACGACGG, the “self-splicing fitness (ln)” value was -3.41 ± 0.14 (30 °C) and -1.67 ± 0.13 (37 °C).

Take UGUUAGCAAUAUUACGCCGA: the “self-splicing fitness (ln)” value reads like this: (30 °C) -1.18 ± 0.17; (37 °C) -1.21 ± 0.15.

AAAUAGCAAUAUUACGACUC: the “self-splicing fitness (ln)” value runs as follows: (30 °C) -0.664 ± 0.17; (37 °C) -0.335 ± 0.21.

For the sequence AGGCAGCAAUAUUACGCACG, the “self-splicing fitness (ln)” value is -0.754 ± 0.069 (30 °C) and -0.342 ± 0.11 (37 °C).

For the sequence AUGGAGCAAUAUUACGCGUU, the “self-splicing fitness (ln)” value is -3.93 ± 0.21 (30 °C) and -3.05 ± 0.24 (37 °C).

For the sequence UCUCAGCAAUAUUACGCUCG, the “self-splicing fitness (ln)” value runs as follows: (30 °C) -3.93 ± 0.25; (37 °C) -2 ± 0.19.

With GCAAAGCAAUAUUACGCAAG, the “self-splicing fitness (ln)” value is -3.95 ± 0.19 (30 °C) and -2.22 ± 0.14 (37 °C).

As to AGUAAGCAAUAUUACGCCUC, the “self-splicing fitness (ln)” value (37 °C) was -1.7 ± 0.38.

The values are drawn from the supplement of paper PMC7877785.
